Tests used:
[1] = target: 구제역 바이러스 혈청형 O 배양액(cal1~cal4) (Foot-and-mouth disease virus serotype O); assay: sandwich ELISA, cal3, 1E58 coat 8 ug/ml, 1E58-HRP 0.4 ug/ml, 450 nm
[2] = target: 구제역 바이러스 혈청형 O 배양액(cal1~cal4) (Foot-and-mouth disease virus serotype O); assay: sandwich ELISA, cal4, 1E58 coat 1 ug/ml, 1E58-HRP 0.4 ug/ml, 450 nm
[3] = target: 구제역 바이러스 혈청형 O 배양액(cal1~cal4) (Foot-and-mouth disease virus serotype O); assay: sandwich ELISA, cal3, 1E58 coat 8 ug/ml, 1E58-HRP 0.6 ug/ml, 450 nm
[4] = target: 구제역 바이러스 혈청형 O 배양액(cal1~cal4) (Foot-and-mouth disease virus serotype O); assay: sandwich ELISA, cal4, 1E58 coat 4 ug/ml, 1E58-HRP 0.2 ug/ml, 450 nm
[5] = target: 구제역 바이러스 혈청형 O 배양액(cal1~cal4) (Foot-and-mouth disease virus serotype O); assay: sandwich ELISA, cal2, 1E58 coat 8 ug/ml, 1E58-HRP 0.4 ug/ml, 450 nm
[6] = target: 구제역 바이러스 혈청형 O 배양액(cal1~cal4) (Foot-and-mouth disease virus serotype O); assay: sandwich ELISA, cal4, 1E58 coat 2 ug/ml, 1E58-HRP 0.8 ug/ml, 450 nm
[7] = target: 구제역 바이러스 혈청형 O 배양액(cal1~cal4) (Foot-and-mouth disease virus serotype O); assay: sandwich ELISA, cal2, 1E58 coat 8 ug/ml, 1E58-HRP 0.6 ug/ml, 450 nm
[8] = target: 구제역 바이러스 혈청형 O 배양액(cal1~cal4) (Foot-and-mouth disease virus serotype O); assay: sandwich ELISA, cal4, 1E58 coat 2 ug/ml, 1E58-HRP 0.6 ug/ml, 450 nm
[9] = target: 구제역 바이러스 혈청형 O 배양액(cal1~cal4) (Foot-and-mouth disease virus serotype O); assay: sandwich ELISA, cal4, 1E58 coat 8 ug/ml, 1E58-HRP 0.4 ug/ml, 450 nm
[10] = target: 구제역 바이러스 혈청형 O 배양액(cal1~cal4) (Foot-and-mouth disease virus serotype O); assay: sandwich ELISA, cal4, 1E58 coat 8 ug/ml, 1E58-HRP 0.8 ug/ml, 450 nm
[11] = target: 구제역 바이러스 혈청형 O 배양액(cal1~cal4) (Foot-and-mouth disease virus serotype O); assay: sandwich ELISA, cal4, 1E58 coat 1 ug/ml, 1E58-HRP 0.6 ug/ml, 450 nm
[12] = target: 구제역 바이러스 혈청형 O 배양액(cal1~cal4) (Foot-and-mouth disease virus serotype O); assay: sandwich ELISA, cal1, 1E58 coat 8 ug/ml, 1E58-HRP 0.8 ug/ml, 450 nm
[13] = target: 구제역 바이러스 혈청형 O 배양액(cal1~cal4) (Foot-and-mouth disease virus serotype O); assay: sandwich ELISA, cal4, 1E58 coat 1 ug/ml, 1E58-HRP 0.8 ug/ml, 450 nm
[14] = target: 구제역 바이러스 혈청형 O 배양액(cal1~cal4) (Foot-and-mouth disease virus serotype O); assay: sandwich ELISA, cal1, 1E58 coat 1 ug/ml, 1E58-HRP 0.8 ug/ml, 450 nm
[15] = target: 구제역 바이러스 혈청형 O 배양액(cal1~cal4) (Foot-and-mouth disease virus serotype O); assay: sandwich ELISA, cal3, 1E58 coat 1 ug/ml, 1E58-HRP 0.6 ug/ml, 450 nm
[16] = target: 구제역 바이러스 혈청형 O 배양액(cal1~cal4) (Foot-and-mouth disease virus serotype O); assay: sandwich ELISA, cal3, 1E58 coat 4 ug/ml, 1E58-HRP 0.2 ug/ml, 450 nm
[17] = target: 구제역 바이러스 혈청형 O 배양액(cal1~cal4) (Foot-and-mouth disease virus serotype O); assay: sandwich ELISA, cal3, 1E58 coat 8 ug/ml, 1E58-HRP 0.8 ug/ml, 450 nm
[18] = target: 구제역 바이러스 혈청형 O 배양액(cal1~cal4) (Foot-and-mouth disease virus serotype O); assay: sandwich ELISA, cal1, 1E58 coat 8 ug/ml, 1E58-HRP 0.4 ug/ml, 450 nm
[19] = target: 구제역 바이러스 혈청형 O 배양액(cal1~cal4) (Foot-and-mouth disease virus serotype O); assay: sandwich ELISA, cal1, 1E58 coat 1 ug/ml, 1E58-HRP 0.6 ug/ml, 450 nm
[20] = target: 구제역 바이러스 혈청형 O 배양액(cal1~cal4) (Foot-and-mouth disease virus serotype O); assay: sandwich ELISA, cal3, 1E58 coat 2 ug/ml, 1E58-HRP 0.2 ug/ml, 450 nm
[21] = target: 구제역 바이러스 혈청형 O 배양액(cal1~cal4) (Foot-and-mouth disease virus serotype O); assay: sandwich ELISA, cal1, 1E58 coat 2 ug/ml, 1E58-HRP 0.4 ug/ml, 450 nm
[22] = target: 구제역 바이러스 혈청형 O 배양액(cal1~cal4) (Foot-and-mouth disease virus serotype O); assay: sandwich ELISA, cal4, 1E58 coat 2 ug/ml, 1E58-HRP 0.4 ug/ml, 450 nm
[23] = target: 구제역 바이러스 혈청형 O 배양액(cal1~cal4) (Foot-and-mouth disease virus serotype O); assay: sandwich ELISA, cal4, 1E58 coat 8 ug/ml, 1E58-HRP 0.6 ug/ml, 450 nm
[24] = target: 구제역 바이러스 혈청형 O 배양액(cal1~cal4) (Foot-and-mouth disease virus serotype O); assay: sandwich ELISA, cal1, 1E58 coat 2 ug/ml, 1E58-HRP 0.6 ug/ml, 450 nm
[25] = target: 구제역 바이러스 혈청형 O 배양액(cal1~cal4) (Foot-and-mouth disease virus serotype O); assay: sandwich ELISA, cal3, 1E58 coat 4 ug/ml, 1E58-HRP 0.4 ug/ml, 450 nm
[26] = target: 불활화 FMDV 혈청형 O (Foot-and-mouth disease virus serotype O)
[27] = target: 구제역 바이러스 혈청형 O 배양액(cal1~cal4) (Foot-and-mouth disease virus serotype O); assay: sandwich ELISA, cal2, 1E58 coat 1 ug/ml, 1E58-HRP 0.4 ug/ml, 450 nm
[28] = target: 구제역 바이러스 혈청형 O 배양액(cal1~cal4) (Foot-and-mouth disease virus serotype O); assay: sandwich ELISA, cal1, 1E58 coat 4 ug/ml, 1E58-HRP 0.8 ug/ml, 450 nm

B1: 단클론항체 1E58 (antibody, V domains shown)
VH: EFQLQQSRPELAKPGASVKISCKTSGHTFTTYTMHWVKQSHVKSLEWIGCFNPNNGGATYNQKFKGKATLTMDKSSNTAYVEVRSLTSDDSAVYYCAYGNYVNFDYWGQGTTLTVSS
VL: DIVLTQSPASLAVSLGQRATISYRASKSVSTSGYSYMHWNQQKPGQPPRLLIYLVSNLESGVPARFSGSGSGTDFTLNIHPVEEEDAATYYCQHIRELTRSEGGPSWKN
O.D [1]: 0.96 O.D | O.D [2]: 0.65 O.D | O.D [3]: 1.13 O.D | O.D [4]: 0.63 O.D | O.D [5]: 1.85 O.D | O.D [6]: 1.05 O.D | O.D [7]: 1.84 O.D | O.D [8]: 0.87 O.D | O.D [9]: 0.39 O.D | O.D [10]: 0.59 O.D | O.D [11]: 0.74 O.D | O.D [12]: 4 O.D | O.D [13]: 1.07 O.D | O.D [14]: 3.21 O.D | O.D [15]: 0.83 O.D | O.D [16]: 1.14 O.D | O.D [17]: 1.31 O.D | O.D [18]: 3.18 O.D | O.D [19]: 2.98 O.D | O.D [20]: 0.98 O.D | O.D [21]: 3.87 O.D | O.D [22]: 0.56 O.D | O.D [23]: 0.62 O.D | O.D [24]: 3.68 O.D | O.D [25]: 1.78 O.D | O.D (450nm) [26]: 1.09 O.D | O.D [27]: 1.4 O.D | O.D [28]: 4 O.D
